Consider 1 molecule from PMC11915502.

This data set addresses His6-HppX3 (Escherichia coli 3R (chicken), …, UniProt A0A0F7IE22 1-151). The experiment in a line: EMSA.

B1: Bio-PactX (actX promoter probe) (dsDNA)
DNA 1: AAGTAACTAGCGGTACTAGAGTCGACCTGCAGGCATATAAAATAAGCGCA
DNA 2: TGCGCTTATTTTATATGCCTGCAGGTCGACTCTAGTACCGCTAGTTACTT
On to B1, for which the binding result is on record as “binds”.
